# Measurements: patent US20190336574A1 (TRUSTEES OF PRINCETON UNIVERSITY, published 2019)
# T1: HA-SND1, full-length human, wild type (human, UniProt Q7KZF4 1-910)
# T1 construct: Full-length, HA-tagged; Expressed in HEK293T cells, tested in lysate; also called HA-tagged SND1; WT HA-SND1
# T1 sequence: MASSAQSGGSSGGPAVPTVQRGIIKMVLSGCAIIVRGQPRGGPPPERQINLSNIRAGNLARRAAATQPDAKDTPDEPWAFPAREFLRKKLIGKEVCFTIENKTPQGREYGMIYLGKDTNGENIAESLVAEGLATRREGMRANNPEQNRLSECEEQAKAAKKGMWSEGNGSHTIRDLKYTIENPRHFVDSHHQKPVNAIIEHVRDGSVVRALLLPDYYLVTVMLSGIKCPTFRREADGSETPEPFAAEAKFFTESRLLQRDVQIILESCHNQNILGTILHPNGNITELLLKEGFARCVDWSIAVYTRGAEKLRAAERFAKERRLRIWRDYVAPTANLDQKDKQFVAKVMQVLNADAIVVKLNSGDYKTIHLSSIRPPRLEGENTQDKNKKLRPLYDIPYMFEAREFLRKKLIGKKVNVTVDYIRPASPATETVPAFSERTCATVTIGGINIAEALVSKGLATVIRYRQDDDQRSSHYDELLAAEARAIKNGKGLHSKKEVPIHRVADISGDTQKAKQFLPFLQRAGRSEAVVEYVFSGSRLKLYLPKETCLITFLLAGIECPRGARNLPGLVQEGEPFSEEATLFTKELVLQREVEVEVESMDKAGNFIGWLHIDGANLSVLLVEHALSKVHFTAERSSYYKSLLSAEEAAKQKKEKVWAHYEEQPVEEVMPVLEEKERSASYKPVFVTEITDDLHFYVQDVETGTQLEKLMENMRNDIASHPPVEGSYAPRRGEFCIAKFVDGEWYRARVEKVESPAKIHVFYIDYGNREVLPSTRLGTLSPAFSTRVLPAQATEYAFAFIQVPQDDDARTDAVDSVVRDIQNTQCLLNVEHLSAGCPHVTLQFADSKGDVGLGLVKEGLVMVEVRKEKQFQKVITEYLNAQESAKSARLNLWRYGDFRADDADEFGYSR
# T2: endogenous human SND1 (human breast cancer cells, MDA-MB-231) (human, UniProt Q7KZF4 2-910)
# T2 construct: Endogenous protein in cell lysate; also called endogenous SND1 protein
# T2 sequence: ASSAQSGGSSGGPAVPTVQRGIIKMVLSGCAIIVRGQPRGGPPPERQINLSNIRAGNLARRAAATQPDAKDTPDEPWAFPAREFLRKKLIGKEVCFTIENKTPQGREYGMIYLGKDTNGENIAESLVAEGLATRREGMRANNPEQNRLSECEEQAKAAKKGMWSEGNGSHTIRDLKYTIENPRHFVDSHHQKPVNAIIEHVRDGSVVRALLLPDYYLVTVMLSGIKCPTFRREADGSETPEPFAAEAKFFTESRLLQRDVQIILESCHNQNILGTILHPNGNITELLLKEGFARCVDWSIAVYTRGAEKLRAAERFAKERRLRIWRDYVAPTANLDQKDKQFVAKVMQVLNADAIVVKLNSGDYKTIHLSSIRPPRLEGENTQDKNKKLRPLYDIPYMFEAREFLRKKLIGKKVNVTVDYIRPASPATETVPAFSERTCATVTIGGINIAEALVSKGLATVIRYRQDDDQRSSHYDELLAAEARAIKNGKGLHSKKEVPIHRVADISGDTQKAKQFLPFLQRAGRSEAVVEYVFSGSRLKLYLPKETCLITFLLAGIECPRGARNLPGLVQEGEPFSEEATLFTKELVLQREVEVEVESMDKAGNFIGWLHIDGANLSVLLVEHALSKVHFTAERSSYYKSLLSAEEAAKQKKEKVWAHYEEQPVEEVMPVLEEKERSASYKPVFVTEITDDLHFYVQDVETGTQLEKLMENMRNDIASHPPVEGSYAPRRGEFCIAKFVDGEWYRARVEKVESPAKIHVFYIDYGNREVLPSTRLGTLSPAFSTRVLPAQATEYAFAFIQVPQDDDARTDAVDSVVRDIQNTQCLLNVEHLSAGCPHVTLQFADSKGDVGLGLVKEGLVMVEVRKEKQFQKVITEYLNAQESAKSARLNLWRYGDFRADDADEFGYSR
# T3: His6-SND1ΔC (SND1 residues 1-339) (human, UniProt Q7KZF4 1-339)
# T3 construct: not shown: N-terminal His tag (His6, His8 or His) with TEV site, pQlink vector
# T3 sequence: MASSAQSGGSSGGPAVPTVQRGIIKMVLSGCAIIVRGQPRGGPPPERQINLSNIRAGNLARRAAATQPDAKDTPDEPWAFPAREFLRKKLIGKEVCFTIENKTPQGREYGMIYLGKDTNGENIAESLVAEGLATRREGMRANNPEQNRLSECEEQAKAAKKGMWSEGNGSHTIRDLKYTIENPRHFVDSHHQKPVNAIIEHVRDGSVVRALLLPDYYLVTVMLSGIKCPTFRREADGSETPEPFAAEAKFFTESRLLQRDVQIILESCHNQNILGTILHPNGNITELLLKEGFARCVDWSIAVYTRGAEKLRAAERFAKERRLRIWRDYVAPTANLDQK
# Columns and labels:
# [1] = target: T1, HA-SND1, full-length human, wild type; experiment: competition in co-IP from 293T cells with HA-SND1 and MYC-MTDH (m36 is the competitor); peptide at 50 uM; the sheet prints IP: MYC, the legend says anti-HA [26B, 26C, 26D]
# Procedure: 293 T cells were co-transfected with HA-SND1 and MYC-MTDH. After 48 hours, the cells were collected and subject to immunoprecipitation assay. Cell lysate was incubated with anti-HA antibody or IgG overnight followed by a two hour incubation with Protein A/G beads to pull down HA-SND1 protein. The beads were washed with lysis buffer and split into five fractions.
# The elution fractions and beads were collected for western blot. (FIGS. 26C and 26D) Cell lyaste was split into 6 fractions. One of the fractions was incubated with IgG and the rest were incubated with anti-HA antibody plus either buffer or indicated peptides. After 24 hours, the lysate was incubated with Protein A/G beads then the beads was washed followed by wash buffer. 50 uM of peptides was used in all the assays.
# [2] = target: T2, endogenous human SND1 (human breast …); experiment: competition in endogenous co-IP from MDA-MB-231 lysate (endogenous MTDH, m58, is the competitor); peptide at 50 uM; the sheet prints IP: MTDH, the legend says anti-SND1 [27B]
# Procedure: Breast cancer cells MDA-MB231 were collected and subjected to IP assay. (FIG. 27A) Cell lysate was incubated with anti-SND1 antibody or IgG overnight followed by 2 hr incubation with Protein A/G beads to pull down endogenous SND1 protein. The beads were washed with lysis buffer and split into 5 fractions. Each fraction was eluted with buffer or indicated peptides for 30 min. The elution fractions and beads were collected for WB. (FIG. 27B) Cell lyaste was split into 5 fractions, and incubated with anti-SND1 antibody plus either buffer or indicated peptides. After 24 hr, the lysate was incubated with Protein A/G beads then the beads were washed in wash buffer.
# The interaction interruption effects was confirmed by endogenous immunoprecipitation (IP) of a breast cancer cell line. Briefly, cell lysates from the breast cancer cell line MDA-MB-231 were collected and subjected to IP assay. FIG. 27A—Cell lysate was incubated with anti-SND1 antibody or IgG overnight followed by 2 hr incubation with Protein A/G beads to pull down endogenous SND1 protein. The beads was washed with lysis buffer and split into 5 fractions. Each fraction was eluted with buffer or indicated peptides for 30 min. The elution fractions and beads were collected for WB. FIG. 27B—Cell lyaste was split into 5 fractions, and incubated with anti-SND1 antibody plus either buffer or indicated peptides. […]
# [3] = target: T3, His6-SND1ΔC (SND1 residues 1-339); experiment: schematic that sums up the GST pull-downs of His6-SND1ΔC
# Description: FIGS. 7A-E represents determination of key regions and residues mediating the MTDH-SND1 interaction. (FIG. 7A) Schematics of MTDH fragments and mutants with indicated SND1-binding capability. + indicates binding and − indicates no binding based on results shown below. Two putative nuclear localization signals are residues 432-451 for NLS2 and residues 561-580 for NLS3. […] (FIG. 7B) Pulldown of His6-SND1ΔC by GST-tagged MTDH fragments with indicated boundaries. The bound proteins were examined by SDS-PAGE and visualized by Coomassie blue staining. […] For (FIG. 7B) and (FIG. 7C), 1/10 of the His6-SND1ΔC input was shown, and GST alone was used as a negative control. Representative results of 3 independent experiments are shown. (FIG. 7D, FIG. 7E) Lysates from HEK293T cells expressing the indicated ectopic human SND1, AGO2 or MTDH were immunoprecipitated with anti-Myc and immunoblotted with the indicated antibodies.
# To further test whether the physical interaction with SND1 is critical for the function of MTDH, detailed analysis on the interaction of the proteins was conducted. SND1 contains four N-terminal Staphylococcal nuclease (SN) repeats and a C-terminal Tudor-SN hybrid domain. […] This allowed us to use the SND1ΔC fragment for the following in vitro binding studies.
Binder,binding result [1],binding result [2],binding result [3]
PNSDWNAPAEEWGNW (also called wild type MTDH peptide) [Peptide-wt (PNSDWNAPAEEWGNW)],binds,binds,
GST-MTDH 406-470 (other) fusion protein: DEERASLLKSQEPIPDDQKVSDDDKEKGEGALPTGKSKKKKKKKKKQGEDNSTAQDTEELEKEIR,,,no binding
